± gives the uncertainty stated by the source.
B1: Histone-lysine N-methyltransferase SETD2, residues 2382 to 2430; numbered along this chain, Q9BYW2 (parent)
chain: SPPKPKTIVLPPNWKTARDPEGKIYYYHVITRQTQWDPPTWESPGDDAS

Variants of: B1
Assay: abundance fitness (aPCA) (normalised: wild type 0, dead -1); higher = more abundant; growth selection in yeast, the domain comes from the species named
Conditions: Homo sapiens
In the case of SPPKPKTIVLPPNWKTARDPEGKIVYYHVITRQTQWDPPTWESPGDDAS [Y25V], the abundance fitness is reported as -0.395 ± 0.039.
In the case of SPPKPKTIVLPPNWKTARDPEGKIWYYHVITRQTQWDPPTWESPGDDAS [Y25W], the abundance fitness is reported as -0.907 ± 0.13.
SPPKPKTIVLPPNWKTARDPEGKIYAYHVITRQTQWDPPTWESPGDDAS [Y26A] gave an abundance fitness of -0.865 ± 0.059.
For SPPKPKTIVLPPNWKTARDPEGKIYCYHVITRQTQWDPPTWESPGDDAS [Y26C], the abundance fitness was -0.853 ± 0.3.
In the case of SPPKPKTIVLPPNWKTARDPEGKIYDYHVITRQTQWDPPTWESPGDDAS [Y26D], the abundance fitness is reported as -0.553 ± 0.21.
SPPKPKTIVLPPNWKTARDPEGKIYEYHVITRQTQWDPPTWESPGDDAS [Y26E] showed an abundance fitness of -0.981 ± 0.077.
For SPPKPKTIVLPPNWKTARDPEGKIYFYHVITRQTQWDPPTWESPGDDAS [Y26F], the abundance fitness was -0.315 ± 0.12.
Work on SPPKPKTIVLPPNWKTARDPEGKIYGYHVITRQTQWDPPTWESPGDDAS [Y26G] yielded an abundance fitness of -0.934 ± 0.1.
SPPKPKTIVLPPNWKTARDPEGKIYHYHVITRQTQWDPPTWESPGDDAS [Y26H] gave an abundance fitness of -0.618 ± 0.13.
For SPPKPKTIVLPPNWKTARDPEGKIYIYHVITRQTQWDPPTWESPGDDAS [Y26I], the abundance fitness was -0.782 ± 0.28.
With SPPKPKTIVLPPNWKTARDPEGKIYKYHVITRQTQWDPPTWESPGDDAS [Y26K] the abundance fitness was -0.655 ± 0.18.
In the case of SPPKPKTIVLPPNWKTARDPEGKIYLYHVITRQTQWDPPTWESPGDDAS [Y26L], the abundance fitness is reported as -0.878 ± 0.088.
With SPPKPKTIVLPPNWKTARDPEGKIYMYHVITRQTQWDPPTWESPGDDAS [Y26M] the abundance fitness was -0.694 ± 0.12.
Work on SPPKPKTIVLPPNWKTARDPEGKIYNYHVITRQTQWDPPTWESPGDDAS [Y26N] yielded an abundance fitness of -0.517 ± 0.24.
Variant SPPKPKTIVLPPNWKTARDPEGKIYPYHVITRQTQWDPPTWESPGDDAS [Y26P] has an abundance fitness of -0.765 ± 0.057.
Variant SPPKPKTIVLPPNWKTARDPEGKIYQYHVITRQTQWDPPTWESPGDDAS [Y26Q] has an abundance fitness of -0.777 ± 0.12.
Work on SPPKPKTIVLPPNWKTARDPEGKIYSYHVITRQTQWDPPTWESPGDDAS [Y26S] yielded an abundance fitness of -0.786 ± 0.13.
SPPKPKTIVLPPNWKTARDPEGKIYTYHVITRQTQWDPPTWESPGDDAS [Y26T] gave an abundance fitness of -0.637 ± 0.15.
With SPPKPKTIVLPPNWKTARDPEGKIYVYHVITRQTQWDPPTWESPGDDAS [Y26V] the abundance fitness was -0.585 ± 0.074.
For SPPKPKTIVLPPNWKTARDPEGKIYWYHVITRQTQWDPPTWESPGDDAS [Y26W], the abundance fitness was -0.498 ± 0.091.
In the case of SPPKPKTIVLPPNWKTARDPEGKIYYCHVITRQTQWDPPTWESPGDDAS [Y27C], the abundance fitness is reported as -0.543 ± 0.093.
For SPPKPKTIVLPPNWKTARDPEGKIYYDHVITRQTQWDPPTWESPGDDAS [Y27D], the abundance fitness was -0.446 ± 0.11.
In the case of SPPKPKTIVLPPNWKTARDPEGKIYYEHVITRQTQWDPPTWESPGDDAS [Y27E], the abundance fitness is reported as -0.3 ± 0.038.
For SPPKPKTIVLPPNWKTARDPEGKIYYFHVITRQTQWDPPTWESPGDDAS [Y27F], the abundance fitness was -0.487 ± 0.15.
For SPPKPKTIVLPPNWKTARDPEGKIYYGHVITRQTQWDPPTWESPGDDAS [Y27G], the abundance fitness was -0.747 ± 0.067.
SPPKPKTIVLPPNWKTARDPEGKIYYHHVITRQTQWDPPTWESPGDDAS [Y27H] gave an abundance fitness of -0.293 ± 0.041.
In the case of SPPKPKTIVLPPNWKTARDPEGKIYYKHVITRQTQWDPPTWESPGDDAS [Y27K], the abundance fitness is reported as -0.261 ± 0.082.
For SPPKPKTIVLPPNWKTARDPEGKIYYLHVITRQTQWDPPTWESPGDDAS [Y27L], the abundance fitness was -0.534 ± 0.054.
SPPKPKTIVLPPNWKTARDPEGKIYYMHVITRQTQWDPPTWESPGDDAS [Y27M] gave an abundance fitness of -0.339 ± 0.046.
With SPPKPKTIVLPPNWKTARDPEGKIYYPHVITRQTQWDPPTWESPGDDAS [Y27P] the abundance fitness was -0.898 ± 0.089.
SPPKPKTIVLPPNWKTARDPEGKIYYQHVITRQTQWDPPTWESPGDDAS [Y27Q] showed an abundance fitness of -0.136 ± 0.081.
With SPPKPKTIVLPPNWKTARDPEGKIYYRHVITRQTQWDPPTWESPGDDAS [Y27R] the abundance fitness was -0.265 ± 0.052.
For SPPKPKTIVLPPNWKTARDPEGKIYYSHVITRQTQWDPPTWESPGDDAS [Y27S], the abundance fitness was -0.433 ± 0.052.
With SPPKPKTIVLPPNWKTARDPEGKIYYTHVITRQTQWDPPTWESPGDDAS [Y27T] the abundance fitness was -0.185 ± 0.075.
Work on SPPKPKTIVLPPNWKTARDPEGKIYYVHVITRQTQWDPPTWESPGDDAS [Y27V] yielded an abundance fitness of -0.173 ± 0.049.
Variant SPPKPKTIVLPPNWKTARDPEGKIYYWHVITRQTQWDPPTWESPGDDAS [Y27W] has an abundance fitness of -0.163 ± 0.062.
Variant SPPKPKTIVLPPNWKTARDPEGKIYYYAVITRQTQWDPPTWESPGDDAS [H28A] has an abundance fitness of -1.06 ± 0.072.
For SPPKPKTIVLPPNWKTARDPEGKIYYYCVITRQTQWDPPTWESPGDDAS [H28C], the abundance fitness was -0.792 ± 0.21.
SPPKPKTIVLPPNWKTARDPEGKIYYYDVITRQTQWDPPTWESPGDDAS [H28D] gave an abundance fitness of -0.213 ± 0.059.
SPPKPKTIVLPPNWKTARDPEGKIYYYEVITRQTQWDPPTWESPGDDAS [H28E] showed an abundance fitness of -0.689 ± 0.17.
With SPPKPKTIVLPPNWKTARDPEGKIYYYFVITRQTQWDPPTWESPGDDAS [H28F] the abundance fitness was -0.94 ± 0.37.
In the case of SPPKPKTIVLPPNWKTARDPEGKIYYYGVITRQTQWDPPTWESPGDDAS [H28G], the abundance fitness is reported as -1.01 ± 0.12.
SPPKPKTIVLPPNWKTARDPEGKIYYYKVITRQTQWDPPTWESPGDDAS [H28K] showed an abundance fitness of -0.971 ± 0.12.
For SPPKPKTIVLPPNWKTARDPEGKIYYYLVITRQTQWDPPTWESPGDDAS [H28L], the abundance fitness was -1.09 ± 0.17.
In the case of SPPKPKTIVLPPNWKTARDPEGKIYYYMVITRQTQWDPPTWESPGDDAS [H28M], the abundance fitness is reported as -1.01 ± 0.29.
For SPPKPKTIVLPPNWKTARDPEGKIYYYNVITRQTQWDPPTWESPGDDAS [H28N], the abundance fitness was 0.023 ± 0.19.
Work on SPPKPKTIVLPPNWKTARDPEGKIYYYQVITRQTQWDPPTWESPGDDAS [H28Q] yielded an abundance fitness of -0.64 ± 0.18.
With SPPKPKTIVLPPNWKTARDPEGKIYYYRVITRQTQWDPPTWESPGDDAS [H28R] the abundance fitness was -1.03 ± 0.12.
SPPKPKTIVLPPNWKTARDPEGKIYYYSVITRQTQWDPPTWESPGDDAS [H28S] showed an abundance fitness of -0.767 ± 0.065.
For SPPKPKTIVLPPNWKTARDPEGKIYYYVVITRQTQWDPPTWESPGDDAS [H28V], the abundance fitness was -0.991 ± 0.16.
Variant SPPKPKTIVLPPNWKTARDPEGKIYYYWVITRQTQWDPPTWESPGDDAS [H28W] has an abundance fitness of -1.05 ± 0.12.
Work on SPPKPKTIVLPPNWKTARDPEGKIYYYYVITRQTQWDPPTWESPGDDAS [H28Y] yielded an abundance fitness of -0.6 ± 0.33.
Variant SPPKPKTIVLPPNWKTARDPEGKIYYYHAITRQTQWDPPTWESPGDDAS [V29A] has an abundance fitness of 0.011 ± 0.055.
